Test results from patent US11357847B2, “Modified HSV gD protein and vaccine containing same” (KM Biologics Co., Ltd., priority 2017, dated 2022).
Substitutions are numbered along the chain they refer to. Numbers in names are those of the source.

Key:
[1] = test system: various anti-gD2 antibodies; assay: Reactivity of gD variants with anti-gD2 antibodies (competitive ELISA); assay type: binding, human; settings: for Relative reactivity with antibody No. 82 (gD1-315 wild-type set to 1): FIG. 13; for Reactivity with anti-gD2 antibody 1 / Reactivity with anti-gD2 antibody 5 / Reactivity with anti-gD2 antibody 13 / Reactivity with anti-gD2 antibody 72 / Reactivity with anti-gD2 antibody 75 / Reactivity with anti-gD2 antibody 78 / Reactivity with anti-gD2 antibody 82: immobilized gD variant
Excerpt: Each anti-gD2 monoclonal antibody and each gD variant were expressed using an Expi293 expression system.

[2] = test system: HSV-2 MS strain; assay: Mouse infection-prevention test of modified gD (genital herpes infection model); assay type: in vivo, BALB/c mice; parameters: key to Determination (vs gD1-315) / Determination# (vs gD1-315): ++: minimum effective dose based on the Significant difference test in three-fold common ratio relative to gD1-315(WT) of two or more doses stronger; +: those of one dose stronger; ±: those of an equivalent value
Description: Immunogenicity test of the modified gD antigen was performed using the wild-type gD antigen gD1-315 (WT) as a positive control and saline as a negative control. A predetermined amount of antigen was dissolved in saline for injection (saline) with MPLA (10 μg/mouse) and CpG (1 μg/mouse) and immunized to mice at a volume of 200 μL/mouse. BALB/c mice (5 weeks old, female) were used for the study and immunized subcutaneously in back at 2-week intervals for a total of 3 times (N=4 cases per group). Two weeks after the final immunization (third dose), blood was collected and serum was prepared for each individual. The prepared serum was serially diluted and assessed for neutralizing antibody-inducing activity against HSV-2 (50% plaque number-reducing activity).
An infection-prevention test in the preventive administration of modified gD antigen was performed using a mouse genital herpes infection model. Similar to the mouse immunogenicity test described above, mice were immunized with the number of N=10 cases per group. Depo-Provera was inoculated subcutaneously at 2 mg/mouse 6 days prior to viral inoculation to improve the multiplicity of infection upon viral inoculation 2 weeks after final immunization (third dose). 5×10^5 PFU/20 μL HSV-2 MS strain was inoculated transvaginally under anesthesia and observed for 21 days. Infection prevention ability was evaluated using survival time (survival rate) as index.
The infection model of the mouse genital herpes infection model was used to evaluate infection prevention ability of various modified gD in preventive administration. The number of animal cases in each group was set to n=10, and wild-type gD (gD1-315) was used as a positive control and saline was used as a negative control. The experiments were performed a total of four times (experiments 1-4) and four doses of 0.1 μg/mouse/time, 0.03 μg/mouse/time, 0.01 μg/mouse/time and 0.003 μg/mouse/time were set for all of the positive control, negative control, and subject modified gD antigen. Depo-Provera was inoculated subcutaneously at 2 mg/mouse 6 days prior to viral inoculation to improve the multiplicity of infection upon viral inoculation 2 weeks after final immunization (third dose). 5×10^5 PFU/20 HSV-2 MS strain was inoculated transvaginally under anesthesia and observed for 21 days. Infection prevention ability was evaluated using survival time (survival rate) as index. Mean values of those were plotted in the graph. A Significant difference test for the negative control group was performed by the Kaplan-Meier method, and those with a minimum effective dose based on the Significant difference test in three-fold common ratio relative to wild type gD of two or more doses stronger were determined to be “++”, those of one dose stronger were determined to be “+”, and those of an equivalent value were determined to be “±”.

[3] = Properties of produced gD variants (aggregates); assay type: physicochemical; settings: expressed and purified variant
Excerpt: Four gD1-275-based variants were produced. Since these were FR3-deficient variants, V231W mutations affecting FR3 were not investigated. […] Meanwhile, eight gD1-315-based variants were produced, and none of the variants were less than the original gD1-315 in both properties and expression level.

[4] = Experiment 2, 0.003 μg/head/time
[5] = Experiment 2, 0.01 μg/head/time
[6] = Experiment 2, 0.03 μg/head/time
[7] = Experiment 1, 0.003 μg/head/time
[8] = Experiment 1, 0.01 μg/head/time
[9] = Experiment 1, 0.03 μg/head/time
[10] = Experiment 4, 0.01 μg/head/time
[11] = Experiment 4, 0.03 μg/head/time
[12] = Experiment 4, fourth dose line, 0.03 μg/head/time
[13] = Experiment 3, 0.01 μg/head/time
[14] = Experiment 3, 0.03 μg/head/time
[15] = Experiment 3, fourth dose line, 0.03 μg/head/time

B1: gD1-315v3-55V: Table 12: glycochain D, F, T cell epitope peptide and V231W (protein)
chain: KYALADPSLKMADPNRFRGKNLPVLDQLTDPPGVKRVYHIQPSLEDPFQNASIPITVYYAVLERACRSVLLHAPSEAPQIVRGASDEARKHTYNLTIAWYRMGDNCAIPITVMEYTECPYNKSLGVCPIRTQPRWSYYDSFSAVSEDNLGFLMHAPAFETAGTYLRLVKINDWTEITQFILEHRARASCKYALPLRIPPAACLTSKAYQQGVTVDSIGMLPRFIPENQRTWALYSLKIAGWHGPKPPYTSTLLPPELSDTTNATQPELVPEDPEDSALLEDPAGTVSSQIPPNWHIPSIQDVAPHHAPAAPSNPGGPGPGIAFWVRRRAQMAPKPLRIAFWVRRRAQMAPKPLRHHHHHH
modifications: left off: small tags and cut ends
[1]
  Relative reactivity with antibody No. 82 (gD1-315 wild-type set to 1): slightly reduced
  Reactivity with anti-gD2 antibody 1: + ((+): 70% or more)
  Reactivity with anti-gD2 antibody 5: − ((−): less than 30%)
  Reactivity with anti-gD2 antibody 13: + ((+): 70% or more)
  Reactivity with anti-gD2 antibody 72: ± ((±): 30% or more and less than 70%)
  Reactivity with anti-gD2 antibody 75: ± ((±): 30% or more and less than 70%)
  Reactivity with anti-gD2 antibody 78: − ((−): less than 30%)
  Reactivity with anti-gD2 antibody 82: + ((+): 70% or more)
[2]; [4]
  Mean survival time: 7 days
  Significant difference test (vs saline): N.S.
[2]; [5]
  Mean survival time: >16.5 days
  Significant difference test (vs saline): N.S.
[2]; [6]
  Mean survival time: >22 days
  Significant difference test (vs saline): ** (** 0.001 = < p < 0.01)
[2]; Experiment 2, 0.1 μg/head/time
  Mean survival time: >22 days
  Significant difference test (vs saline): *** (*** p < 0.001)
[2]; Experiment 2, minimum effective dose relative to gD1-315(WT)
  Determination# (vs gD1-315): +

B2: gD1-315v5-55V: gD1-315 with glycochains at SC-A, SC-F, T cell epitope peptide DP5 and V231W (protein)
chain: B1 chain with R186N
modifications: left off: small tags and cut ends
[1]
  Relative reactivity with antibody No. 82 (gD1-315 wild-type set to 1): slightly reduced
  Reactivity with anti-gD2 antibody 1: + ((+): 70% or more)
  Reactivity with anti-gD2 antibody 5: − ((−): less than 30%)
  Reactivity with anti-gD2 antibody 13: + ((+): 70% or more)
  Reactivity with anti-gD2 antibody 72: + ((+): 70% or more)
  Reactivity with anti-gD2 antibody 75: − ((−): less than 30%)
  Reactivity with anti-gD2 antibody 78: − ((−): less than 30%)
  Reactivity with anti-gD2 antibody 82: + ((+): 70% or more)
[2]; [7]
  Mean survival time: 10 days
  Significant difference test (vs saline): ** (** 0.001 = < p < 0.01)
[2]; [8]
  Mean survival time: >21 days
  Significant difference test (vs saline): *** (*** p < 0.001)
[2]; [9]
  Mean survival time: >21 days
  Significant difference test (vs saline): *** (*** p < 0.001)
[2]; Experiment 1, 0.1 μg/head/time
  Mean survival time: >21 days
  Significant difference test (vs saline): *** (*** p < 0.001)
[2]; Experiment 1, minimum effective dose relative to gD1-315(WT)
  Determination (vs gD1-315): ++
[2]; [10]
  Mean survival time: >21 days
  Significant difference test (vs saline): * (* 0.01 = < p < 0.05)
[2]; [11]
  Mean survival time: >21 days
  Significant difference test (vs saline): *** (*** p < 0.001)
[2]; Experiment 4, 0.1 μg/head/time
  Mean survival time: >21 days
  Significant difference test (vs saline): *** (*** p < 0.001)
[2]; [12]
  Mean survival time: 8.5 days
  Significant difference test (vs saline): N.S.
[2]; Experiment 4, minimum effective dose relative to gD1-315(WT)
  Determination# (vs gD1-315): ++

B3: gD1-275v3: gD1-275 with glycochain at P50 (SC-F) (protein)
chain: KYALADPSLKMADPNRFRGKNLPVLDQLTDPPGVKRVYHIQPSLEDPFQNASIPITVYYAVLERACRSVLLHAPSEAPQIVRGASDEARKHTYNLTIAWYRMGDNCAIPITVMEYTECPYNKSLGVCPIRTQPRWSYYDSFSAVSEDNLGFLMHAPAFETAGTYLRLVKINDWTEITQFILEHRARASCKYALPLRIPPAACLTSKAYQQGVTVDSIGMLPRFIPENQRTVALYSLKIAGWHGPKPPYTSTLLPPELSDTTNATQPELVPEDPEDHHHHHH
[3]
  Properties of the variant (aggregates): no change in properties
[1]
  Reactivity with anti-gD2 antibody 1: − ((−): less than 30%)
  Reactivity with anti-gD2 antibody 5: − ((−): less than 30%)
  Reactivity with anti-gD2 antibody 13: − ((−): less than 30%)
  Reactivity with anti-gD2 antibody 72: − ((−): less than 30%)
  Reactivity with anti-gD2 antibody 75: − ((−): less than 30%)
  Reactivity with anti-gD2 antibody 78: − ((−): less than 30%)
  Reactivity with anti-gD2 antibody 82: + ((+): 70% or more)

B4: gD1-275v5: gD1-275 with glycochains at R186 (SC-A) and P50 (SC-F) (protein)
chain: B3 chain with R186N
[3]
  Properties of the variant (aggregates): no change in properties
[1]
  Relative reactivity with antibody No. 82 (gD1-315 wild-type set to 1): substantially similar reactivity
  Reactivity with anti-gD2 antibody 1: − ((−): less than 30%)
  Reactivity with anti-gD2 antibody 5: − ((−): less than 30%)
  Reactivity with anti-gD2 antibody 13: − ((−): less than 30%)
  Reactivity with anti-gD2 antibody 72: + ((+): 70% or more)
  Reactivity with anti-gD2 antibody 75: − ((−): less than 30%)
  Reactivity with anti-gD2 antibody 78: − ((−): less than 30%)
  Reactivity with anti-gD2 antibody 82: + ((+): 70% or more)

B5: gD1-315v3V: gD1-315 with glycochain at SC-F and V231W (protein)
chain: KYALADPSLKMADPNRFRGKNLPVLDQLTDPPGVKRVYHIQPSLEDPFQNASIPITVYYAVLERACRSVLLHAPSEAPQIVRGASDEARKHTYNLTIAWYRMGDNCAIPITVMEYTECPYNKSLGVCPIRTQPRWSYYDSFSAVSEDNLGFLMHAPAFETAGTYLRLVKINDWTEITQFILEHRARASCKYALPLRIPPAACLTSKAYQQGVTVDSIGMLPRFIPENQRTWALYSLKIAGWHGPKPPYTSTLLPPELSDTTNATQPELVPEDPEDSALLEDPAGTVSSQIPPNWHIPSIQDVAPHHAPAAPSNPGHHHHHH
[1]
  Reactivity with anti-gD2 antibody 1: + ((+): 70% or more)
  Reactivity with anti-gD2 antibody 5: − ((−): less than 30%)
  Reactivity with anti-gD2 antibody 13: + ((+): 70% or more)
  Reactivity with anti-gD2 antibody 72: − ((−): less than 30%)
  Reactivity with anti-gD2 antibody 75: − ((−): less than 30%)
  Reactivity with anti-gD2 antibody 78: − ((−): less than 30%)
  Reactivity with anti-gD2 antibody 82: + ((+): 70% or more)
[2]; [13]
  Mean survival time: 7 days
  Significant difference test (vs saline): * (* 0.01 = < p < 0.05)
[2]; [14]
  Mean survival time: >21 days
  Significant difference test (vs saline): *** (*** p < 0.001)
[2]; Experiment 3, 0.1 μg/head/time
  Mean survival time: >21 days
  Significant difference test (vs saline): *** (*** p < 0.001)
[2]; [15]
  Mean survival time: 6 days
  Significant difference test (vs saline): N.S.
[2]; Experiment 3, minimum effective dose relative to gD1-315(WT)
  Determination# (vs gD1-315): ±

B6: gD1-275 (protein)
chain: KYALADPSLKMADPNRFRGKNLPVLDQLTDPPGVKRVYHIQPSLEDPFQPPSIPITVYYAVLERACRSVLLHAPSEAPQIVRGASDEARKHTYNLTIAWYRMGDNCAIPITVMEYTECPYNKSLGVCPIRTQPRWSYYDSFSAVSEDNLGFLMHAPAFETAGTYLRLVKINDWTEITQFILEHRARASCKYALPLRIPPAACLTSKAYQQGVTVDSIGMLPRFIPENQRTVALYSLKIAGWHGPKPPYTSTLLPPELSDTTNATQPELVPEDPED
[3]
  Properties of the variant (aggregates): Aggregation
[1]
  Reactivity with anti-gD2 antibody 1: − ((−): less than 30%)
  Reactivity with anti-gD2 antibody 5: + ((+): 70% or more)
  Reactivity with anti-gD2 antibody 13: + ((+): 70% or more)
  Reactivity with anti-gD2 antibody 72: + ((+): 70% or more)
  Reactivity with anti-gD2 antibody 75: + ((+): 70% or more)
  Reactivity with anti-gD2 antibody 78: + ((+): 70% or more)
  Reactivity with anti-gD2 antibody 82: + ((+): 70% or more)
